Substitutions are numbered along the chain they refer to. Each block holds one binder with its values, some of them ahead of it.
Legend:
[1] = molecular target: T1, human BCMA on BCMA expressing cell lines (human, UniProt Q02223 1-184); test: cell-based or functional assay
T1 sequence: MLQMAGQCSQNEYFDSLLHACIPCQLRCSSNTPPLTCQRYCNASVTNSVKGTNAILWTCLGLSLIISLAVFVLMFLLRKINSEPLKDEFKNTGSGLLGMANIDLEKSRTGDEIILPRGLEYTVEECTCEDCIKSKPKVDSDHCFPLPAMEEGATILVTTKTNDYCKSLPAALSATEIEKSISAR

[2] = molecular target: T2, human BCMA protein (human, UniProt Q02223 1-54, limits assumed); test: affinity to human BCMA protein, method not stated
T2 sequence: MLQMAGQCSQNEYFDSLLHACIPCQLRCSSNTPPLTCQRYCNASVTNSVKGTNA

TDCC EC50 (EJM cells) [1]: 392 pM
Kd [2]: 40.5 nM
B1: BCMA targeting trispecific protein 01F12 (other)
VHH: EVQLVESGGGLVQPGRSLTLSCAASTNIFRISPMGWYRQAPGKQRELVAAIHGDSTLYADSVKGRFTISRDNAKNSIYLQMNSLRPEDTALYYCNKVPWGRYHPRNVYWGQGTQVTVSS
notes: trispecific; not shown: anti-albumin domain, anti-CD3 domain and the linkers of the trispecific; the C-terminal His6 that follows them is left out

TDCC EC50 (EJM cells) [1]: 3.17 pM
Kd [2]: 7.06 nM
B2: BCMA targeting trispecific protein 01H11 (other, not shown: large carriers; small tags and cut ends)
VHH: B1 VHH with A23V, R30S, I31T, D54F, R101D, R105G
notes: trispecific

TDCC EC50 (EJM cells) [1]: 24.1 pM
Kd [2]: 11.7 nM
B3: BCMA targeting trispecific protein 01G04 (other, not shown: large carriers; small tags and cut ends)
VHH: B1 VHH with F29D, R30S, D54N, R101D, N106M
notes: trispecific

TDCC EC50 (EJM cells) [1]: 35.2 pM
Kd [2]: 24.8 nM
B4: BCMA targeting trispecific protein 01H10 (other)
VHH: B1 VHH with F29P, R30S, D54E, R101D
notes: trispecific; not shown: The C-terminal 6xHis tag is left out because it follows these missing domains

TDCC EC50 (EJM cells) [1]: 16.2 pM
Kd [2]: 15.6 nM
B5: BCMA targeting trispecific protein 02C05 (other)
VHH: B1 VHH with R30S, I31E, D54F, S55T, R101D, Y108T
notes: trispecific; not shown: anti-albumin domain, anti-CD3 domain and the linkers of the trispecific (TriTAC) chain; the C-terminal 6xHis tag follows these missing domains and is left out

TDCC EC50 (EJM cells) [1]: 14.7 pM
Kd [2]: 17.4 nM
B6: BCMA targeting trispecific protein 01H04 (other)
VHH: B1 VHH with R30S, I31K, D54Q, R101D, Y108T
notes: trispecific; not shown: anti-albumin domain, anti-CD3 domain and the linkers of the trispecific (TriTAC) format

TDCC EC50 (EJM cells) [1]: 60.6 pM
Kd [2]: 25.2 nM
B7: BCMA targeting trispecific protein 02A11 (other)
VHH: B1 VHH with I28H, R30S, D54S, R101D, N106V
notes: trispecific; also called 02All; not shown: the C-terminal 6xHis tag follows those domains and is left out

TDCC EC50 (EJM cells) [1]: 118 pM
Kd [2]: 35.9 nM
B8: BCMA targeting trispecific protein 01H01 (other, not shown: large carriers; small tags and cut ends)
VHH: B1 VHH with F29G, R30S, D54Q, R101D, R105Q
notes: trispecific

TDCC EC50 (EJM cells) [1]: 124 pM
Kd [2]: 25.2 nM
B9: BCMA targeting trispecific protein 02B12 (other, not shown: large carriers; small tags and cut ends)
VHH: B1 VHH with F29S, R30S, D54F, S55D, R101D
notes: trispecific

TDCC EC50 (EJM cells) [1]: 11.3 pM
Kd [2]: 15.2 nM
B10: BCMA targeting trispecific protein 02B04 (other)
VHH: B1 VHH with R30S, I31T, D54F, L57I, R101D, R105L
notes: trispecific; not shown: the C-terminal 6xHis tag follows those missing domains and is left out

TDCC EC50 (EJM cells) [1]: 1.55 pM
Kd [2]: 5.31 nM
B11: BCMA targeting trispecific protein 02C01 (other)
VHH: B1 VHH with F29I, R30S, D54A, R101D, R105G
notes: as for B1

TDCC EC50 (EJM cells) [1]: 19.2 pM
Kd [2]: 17 nM
B12: BCMA targeting trispecific protein 01G06 (other, not shown: large carriers; small tags and cut ends)
VHH: B1 VHH with R30S, I31R, D54F, S55E, R101D, Y108L
notes: trispecific

TDCC EC50 (EJM cells) [1]: 20.1 pM
Kd [2]: 9.51 nM
B13: BCMA targeting trispecific protein 02A08 (other, not shown: large carriers; small tags and cut ends)
VHH: B1 VHH with R30S, I31R, D54E, R105G
notes: trispecific

TDCC EC50 (EJM cells) [1]: 2.59 pM
Kd [2]: 7.06 nM
B14: BCMA targeting trispecific protein 02F07 (other)
VHH: B1 VHH with F29E, R30S, D54F, R101D, R105G
notes: trispecific; not shown: the C-terminal His6 follows those missing domains and is left out

TDCC EC50 (EJM cells) [1]: 3.98 pM
Kd [2]: 9.7 nM
B15: BCMA targeting trispecific protein 01G11 (other, not shown: large carriers; small tags and cut ends)
VHH: B1 VHH with F29P, R30S, D54A, R101D, Y108A
notes: trispecific

TDCC EC50 (EJM cells) [1]: 2.21 pM
Kd [2]: 5.44 nM
B16: BCMA targeting trispecific protein 01H09 (other)
VHH: B1 VHH with F29M, R30S, D54N, R101D, R105G
notes: as for B14

TDCC EC50 (EJM cells) [1]: 38.2 pM
Kd [2]: 17.6 nM
B17: BCMA targeting trispecific protein 02A04 (other)
VHH: B1 VHH with R30S, I31Q, D54K, R101D, R105S, Q111K
notes: as for B4

TDCC EC50 (EJM cells) [1]: 3.14 pM
Kd [2]: 7.76 nM
B18: BCMA targeting trispecific protein 02F12 (other, not shown: large carriers; small tags and cut ends)
VHH: B1 VHH with F29E, R30S, D54T, R101D, R105G
notes: trispecific

TDCC EC50 (EJM cells) [1]: 10.8 pM
Kd [2]: 16.3 nM
B19: BCMA targeting trispecific protein 02G01 (other)
VHH: B1 VHH with R30S, S32N, D54F, S55D, R101D, Y108S
notes: as for B10

TDCC EC50 (EJM cells) [1]: 19.3 pM
Kd [2]: 21.9 nM
B20: BCMA targeting trispecific protein 02F06 (other, not shown: large carriers; small tags and cut ends)
VHH: B1 VHH with R30S, S32T, D54E
notes: trispecific

TDCC EC50 (EJM cells) [1]: 5.83 pM
Kd [2]: 14.6 nM
B21: BCMA targeting trispecific protein 01G01 (other)
VHH: B1 VHH with F29V, R30S, R101D, N106R
notes: as for B10

TDCC EC50 (EJM cells) [1]: 45.4 pM
Kd [2]: 27.4 nM
B22: BCMA targeting trispecific protein 01H05 (other, not shown: large carriers; small tags and cut ends)
VHH: B1 VHH with R30S, S32T, D54T
notes: trispecific

TDCC EC50 (EJM cells) [1]: 441 pM
Kd [2]: 87.8 nM
B23: BCMA targeting trispecific protein 01G09 (other)
VHH: B1 VHH with R30N, D54F, L57Y
notes: as for B1

TDCC EC50 (EJM cells) [1]: 51.8 pM
Kd [2]: 21.4 nM
B24: BCMA targeting trispecific protein 02B01 (other, not shown: large carriers; small tags and cut ends)
VHH: B1 VHH with R30S, I31N, D54R, R101D, Y108M
notes: trispecific

TDCC EC50 (EJM cells) [1]: 143 pM
Kd [2]: 41.9 nM
B25: BCMA targeting trispecific protein 01G10 (other, not shown: large carriers; small tags and cut ends)
VHH: B1 VHH with I28E, R30S, D54L, R101A
notes: trispecific

TDCC EC50 (EJM cells) [1]: 27.9 pM
Kd [2]: 18.4 nM
B26: BCMA targeting trispecific protein 02A07 (other, not shown: large carriers; small tags and cut ends)
VHH: B1 VHH with R30S, I31K, D54N, R101D, N106E
notes: trispecific

TDCC EC50 (EJM cells) [1]: 1.95 pM
Kd [2]: 6.9 nM
B27: BCMA targeting trispecific protein 02C06 (other, not shown: large carriers; small tags and cut ends)
VHH: B1 VHH with R30S, I31T, D54T, R101D, R105G
notes: trispecific

TDCC EC50 (EJM cells) [1]: 3 pM
Kd [2]: 7.15 nM
B28: BCMA targeting trispecific protein 02F05 (other, not shown: large carriers; small tags and cut ends)
VHH: B1 VHH with R30S, I31V, D54N, R101K
notes: trispecific

TDCC EC50 (EJM cells) [1]: 2.35 pM
Kd [2]: 6.71 nM
B29: BCMA targeting trispecific protein 02D11 (other)
VHH: B1 VHH with I28E, R30S, D54E, R101D, R105G
notes: as for B14

TDCC EC50 (EJM cells) [1]: 4.21 pM
Kd [2]: 7.06 nM
B30: BCMA targeting trispecific protein 02A05 (other, not shown: large carriers; small tags and cut ends)
VHH: B1 VHH with F29A, R30S, D54K, R101D, R105G
notes: trispecific

TDCC EC50 (EJM cells) [1]: 14.4 pM
Kd [2]: 13.3 nM
B31: BCMA targeting trispecific protein 02B11 (other)
VHH: B1 VHH with F29V, R30S, R101D, Y108S
notes: as for B6

TDCC EC50 (EJM cells) [1]: 31.1 pM
Kd [2]: 20.9 nM
B32: BCMA targeting trispecific protein 02E09 (other, not shown: large carriers; small tags and cut ends)
VHH: B1 VHH with I28D, R30S, D54G, R101D, Y108A
notes: trispecific

TDCC EC50 (EJM cells) [1]: 24.5 pM
Kd [2]: 25.7 nM
B33: BCMA targeting trispecific protein 02F03 (other, not shown: large carriers; small tags and cut ends)
VHH: B1 VHH with R30S, S32Y, D54S, R101D, R105K
notes: trispecific

TDCC EC50 (EJM cells) [1]: 2.52 pM
Kd [2]: 7.09 nM
B34: BCMA targeting trispecific protein 02C03 (other)
VHH: B1 VHH with F29A, R30S, D54S, R101D, R105G
notes: as for B14

TDCC EC50 (EJM cells) [1]: 42.8 pM
Kd [2]: 23.3 nM
B35: BCMA targeting trispecific protein 02D06 (other, not shown: large carriers; small tags and cut ends)
VHH: B1 VHH with F29S, R30S, D54F, L57V
notes: trispecific

TDCC EC50 (EJM cells) [1]: 16.5 pM
Kd [2]: 16.8 nM
B36: BCMA targeting trispecific protein 02E03 (other)
VHH: B1 VHH with R30S, I31N, D54P, R101D, Y108T
notes: as for B5

TDCC EC50 (EJM cells) [1]: 15.2 pM
Kd [2]: 20 nM
B37: BCMA targeting trispecific protein 02F11 (other)
VHH: B1 VHH with R30S, I31T, D54T, R101D, Y108Q
notes: as for B6

TDCC EC50 (EJM cells) [1]: 14.2 pM
Kd [2]: 15.8 nM
B38: BCMA targeting trispecific protein 02B07 (other)
VHH: B1 VHH with R30S, I31S, D54H, R101D, Y108T
notes: as for B6

— US20240327534A1 (HARPOON THERAPEUTICS, published 2024)
